In patent US20180009871A1 (INTARCIA THERAPEUTICS, published 2018):
Where no end group is shown, it is not given here. [ ]: non-standard residue; d: D form. Aib = CC(C)(N)C(=O)O

Assays:
[1] = biological target: human glucagon receptor (GCGR) (human, UniProt P47871 26-477); assay: cell-based or functional assay
[2] = biological target: human GLP-1 receptor (GLP-1R) (human, UniProt P43220 24-463); assay: cell-based or functional assay
human GLP-1 receptor (GLP-1R), sequence (P43220 24-463): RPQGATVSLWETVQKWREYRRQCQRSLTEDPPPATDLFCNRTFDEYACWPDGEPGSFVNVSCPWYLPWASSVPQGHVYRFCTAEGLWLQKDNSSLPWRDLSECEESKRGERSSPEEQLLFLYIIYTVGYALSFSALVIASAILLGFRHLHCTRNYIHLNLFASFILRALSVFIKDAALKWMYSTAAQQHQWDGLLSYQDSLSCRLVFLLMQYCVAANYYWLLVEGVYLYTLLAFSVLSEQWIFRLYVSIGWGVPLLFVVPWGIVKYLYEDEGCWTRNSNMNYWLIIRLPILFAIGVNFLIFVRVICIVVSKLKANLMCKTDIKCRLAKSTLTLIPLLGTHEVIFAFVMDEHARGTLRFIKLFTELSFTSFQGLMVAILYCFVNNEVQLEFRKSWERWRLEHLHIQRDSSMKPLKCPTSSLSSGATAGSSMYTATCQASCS

Row | Binder | hGCGR pEC50 (cAMP) [1] | hGLP1 pEC50 (cAMP) [2]
1 | YSHGTFTSDHSKWLDSARAQEFVKWLEDEPSSGAPPPS-OH [Compound A40] | 10.1 pEC50 | < 9 pEC50
2 | YSHGTFTSDYSKWLDSARAQEFVKWLEDEPSSGAPPPS-OH [Compound A38] | 13.7 pEC50 | < 9 pEC50
3 | YSHGTFTSDYSKYLDQARAQEFVKWLEDEPSSGAPPPS-OH [Compound A44] | 11.9 pEC50 | < 9 pEC50
4 | YSHGTFTSDYSKYLD[Aib]KRAQEFV[Aib]WLEDEPESGAPPPS-OH (N-terminus assumed; SMILES CC(C)C[C@H](NC(=O)[C@H](Cc1ccc(O)cc1)NC(=O)[C@H](CCCCN)NC(=O)[C@H](CO)NC(=O)[C@H](Cc1ccc(O)cc1)NC(=O)[C@H](CC(=O)O)NC(=O)[C@H](CO)NC(=O)[C@@H](NC(=O)[C@H](Cc1ccccc1)NC(=O)[C@@H](NC(=O)CNC(=O)[C@H](Cc1c[nH]cn1)NC(=O)[C@H](CO)NC(=O)[C@@H](N)Cc1ccc(O)cc1)[C@@H](C)O)[C@@H](C)O)C(=O)N[C@@H](CC(=O)O)C(=O)NC(C)(C)C(=O)N[C@@H](CCCCN)C(=O)N[C@@H](CCCNC(=N)N)C(=O)N[C@@H](C)C(=O)N[C@@H](CCC(N)=O)C(=O)N[C@@H](CCC(=O)O)C(=O)N[C@@H](Cc1ccccc1)C(=O)N[C@H](C(=O)NC(C)(C)C(=O)N[C@@H](Cc1c[nH]c2ccccc12)C(=O)N[C@@H](CC(C)C)C(=O)N[C@@H](CCC(=O)O)C(=O)N[C@@H](CC(=O)O)C(=O)N[C@@H](CCC(=O)O)C(=O)N1CCC[C@H]1C(=O)N[C@@H](CCC(=O)O)C(=O)N[C@@H](CO)C(=O)NCC(=O)N[C@@H](C)C(=O)N1CCC[C@H]1C(=O)N1CCC[C@H]1C(=O)N1CCC[C@H]1C(=O)N[C@@H](CO)C(=O)O)C(C)C) [Compound A31] | 11.7 pEC50 | < 9 pEC50
5 | YTHGTFTSDYSKWLD[Aib]ARAQEFV[Aib]WLEDEPSSGAPPPS-OH (N-terminus assumed; SMILES CC(C)C[C@H](NC(=O)[C@H](Cc1c[nH]c2ccccc12)NC(=O)[C@H](CCCCN)NC(=O)[C@H](CO)NC(=O)[C@H](Cc1ccc(O)cc1)NC(=O)[C@H](CC(=O)O)NC(=O)[C@H](CO)NC(=O)[C@@H](NC(=O)[C@H](Cc1ccccc1)NC(=O)[C@@H](NC(=O)CNC(=O)[C@H](Cc1c[nH]cn1)NC(=O)[C@@H](NC(=O)[C@@H](N)Cc1ccc(O)cc1)[C@@H](C)O)[C@@H](C)O)[C@@H](C)O)C(=O)N[C@@H](CC(=O)O)C(=O)NC(C)(C)C(=O)N[C@@H](C)C(=O)N[C@@H](CCCNC(=N)N)C(=O)N[C@@H](C)C(=O)N[C@@H](CCC(N)=O)C(=O)N[C@@H](CCC(=O)O)C(=O)N[C@@H](Cc1ccccc1)C(=O)N[C@H](C(=O)NC(C)(C)C(=O)N[C@@H](Cc1c[nH]c2ccccc12)C(=O)N[C@@H](CC(C)C)C(=O)N[C@@H](CCC(=O)O)C(=O)N[C@@H](CC(=O)O)C(=O)N[C@@H](CCC(=O)O)C(=O)N1CCC[C@H]1C(=O)N[C@@H](CO)C(=O)N[C@@H](CO)C(=O)NCC(=O)N[C@@H](C)C(=O)N1CCC[C@H]1C(=O)N1CCC[C@H]1C(=O)N1CCC[C@H]1C(=O)N[C@@H](CO)C(=O)O)C(C)C) [Compound A35] | 13.2 pEC50 | < 9 pEC50
6 | YTHGTFTSDYSKWLD[Aib]KRAQEFV[Aib]WLEDEPSSGAPPPS-OH (N-terminus assumed; SMILES CC(C)C[C@H](NC(=O)[C@H](Cc1c[nH]c2ccccc12)NC(=O)[C@H](CCCCN)NC(=O)[C@H](CO)NC(=O)[C@H](Cc1ccc(O)cc1)NC(=O)[C@H](CC(=O)O)NC(=O)[C@H](CO)NC(=O)[C@@H](NC(=O)[C@H](Cc1ccccc1)NC(=O)[C@@H](NC(=O)CNC(=O)[C@H](Cc1c[nH]cn1)NC(=O)[C@@H](NC(=O)[C@@H](N)Cc1ccc(O)cc1)[C@@H](C)O)[C@@H](C)O)[C@@H](C)O)C(=O)N[C@@H](CC(=O)O)C(=O)NC(C)(C)C(=O)N[C@@H](CCCCN)C(=O)N[C@@H](CCCNC(=N)N)C(=O)N[C@@H](C)C(=O)N[C@@H](CCC(N)=O)C(=O)N[C@@H](CCC(=O)O)C(=O)N[C@@H](Cc1ccccc1)C(=O)N[C@H](C(=O)NC(C)(C)C(=O)N[C@@H](Cc1c[nH]c2ccccc12)C(=O)N[C@@H](CC(C)C)C(=O)N[C@@H](CCC(=O)O)C(=O)N[C@@H](CC(=O)O)C(=O)N[C@@H](CCC(=O)O)C(=O)N1CCC[C@H]1C(=O)N[C@@H](CO)C(=O)N[C@@H](CO)C(=O)NCC(=O)N[C@@H](C)C(=O)N1CCC[C@H]1C(=O)N1CCC[C@H]1C(=O)N1CCC[C@H]1C(=O)N[C@@H](CO)C(=O)O)C(C)C) [Compound A32] | 12.5 pEC50 | < 9 pEC50
7 | YSHGTFTSDYSKYLDKARAQEFVKWLEDEPSSGAPPPS-OH [Compound A43] | 11.8 pEC50 | < 9 pEC50
8 | YTHGTFTSDYSKWLDSARAQEFVKWLEDEPSSGAPPPS-OH [Compound A39] | 9.4 pEC50 | < 9 pEC50
9 | YSHGTFTSDHSKWLD[Aib]ARAQEFV[Aib]WLEDEPSSGAPPPS-OH (N-terminus assumed; SMILES CC(C)C[C@H](NC(=O)[C@H](Cc1c[nH]c2ccccc12)NC(=O)[C@H](CCCCN)NC(=O)[C@H](CO)NC(=O)[C@H](Cc1c[nH]cn1)NC(=O)[C@H](CC(=O)O)NC(=O)[C@H](CO)NC(=O)[C@@H](NC(=O)[C@H](Cc1ccccc1)NC(=O)[C@@H](NC(=O)CNC(=O)[C@H](Cc1c[nH]cn1)NC(=O)[C@H](CO)NC(=O)[C@@H](N)Cc1ccc(O)cc1)[C@@H](C)O)[C@@H](C)O)C(=O)N[C@@H](CC(=O)O)C(=O)NC(C)(C)C(=O)N[C@@H](C)C(=O)N[C@@H](CCCNC(=N)N)C(=O)N[C@@H](C)C(=O)N[C@@H](CCC(N)=O)C(=O)N[C@@H](CCC(=O)O)C(=O)N[C@@H](Cc1ccccc1)C(=O)N[C@H](C(=O)NC(C)(C)C(=O)N[C@@H](Cc1c[nH]c2ccccc12)C(=O)N[C@@H](CC(C)C)C(=O)N[C@@H](CCC(=O)O)C(=O)N[C@@H](CC(=O)O)C(=O)N[C@@H](CCC(=O)O)C(=O)N1CCC[C@H]1C(=O)N[C@@H](CO)C(=O)N[C@@H](CO)C(=O)NCC(=O)N[C@@H](C)C(=O)N1CCC[C@H]1C(=O)N1CCC[C@H]1C(=O)N1CCC[C@H]1C(=O)N[C@@H](CO)C(=O)O)C(C)C) [Compound A36] | 10.2 pEC50 | < 9 pEC50
10 | YTHGTFTSDHSKWLD[Aib]KRAQEFV[Aib]WLEDEPSSGAPPPS-OH (N-terminus assumed; SMILES CC(C)C[C@H](NC(=O)[C@H](Cc1c[nH]c2ccccc12)NC(=O)[C@H](CCCCN)NC(=O)[C@H](CO)NC(=O)[C@H](Cc1c[nH]cn1)NC(=O)[C@H](CC(=O)O)NC(=O)[C@H](CO)NC(=O)[C@@H](NC(=O)[C@H](Cc1ccccc1)NC(=O)[C@@H](NC(=O)CNC(=O)[C@H](Cc1c[nH]cn1)NC(=O)[C@@H](NC(=O)[C@@H](N)Cc1ccc(O)cc1)[C@@H](C)O)[C@@H](C)O)[C@@H](C)O)C(=O)N[C@@H](CC(=O)O)C(=O)NC(C)(C)C(=O)N[C@@H](CCCCN)C(=O)N[C@@H](CCCNC(=N)N)C(=O)N[C@@H](C)C(=O)N[C@@H](CCC(N)=O)C(=O)N[C@@H](CCC(=O)O)C(=O)N[C@@H](Cc1ccccc1)C(=O)N[C@H](C(=O)NC(C)(C)C(=O)N[C@@H](Cc1c[nH]c2ccccc12)C(=O)N[C@@H](CC(C)C)C(=O)N[C@@H](CCC(=O)O)C(=O)N[C@@H](CC(=O)O)C(=O)N[C@@H](CCC(=O)O)C(=O)N1CCC[C@H]1C(=O)N[C@@H](CO)C(=O)N[C@@H](CO)C(=O)NCC(=O)N[C@@H](C)C(=O)N1CCC[C@H]1C(=O)N1CCC[C@H]1C(=O)N1CCC[C@H]1C(=O)N[C@@H](CO)C(=O)O)C(C)C) [Compound A34] | 10.3 pEC50 | < 9 pEC50
11 | YSHGTFTSDHSKWLD[Aib]KRAQEFV[Aib]WLEDEPSSGAPPPS-OH (N-terminus assumed; SMILES CC(C)C[C@H](NC(=O)[C@H](Cc1c[nH]c2ccccc12)NC(=O)[C@H](CCCCN)NC(=O)[C@H](CO)NC(=O)[C@H](Cc1c[nH]cn1)NC(=O)[C@H](CC(=O)O)NC(=O)[C@H](CO)NC(=O)[C@@H](NC(=O)[C@H](Cc1ccccc1)NC(=O)[C@@H](NC(=O)CNC(=O)[C@H](Cc1c[nH]cn1)NC(=O)[C@H](CO)NC(=O)[C@@H](N)Cc1ccc(O)cc1)[C@@H](C)O)[C@@H](C)O)C(=O)N[C@@H](CC(=O)O)C(=O)NC(C)(C)C(=O)N[C@@H](CCCCN)C(=O)N[C@@H](CCCNC(=N)N)C(=O)N[C@@H](C)C(=O)N[C@@H](CCC(N)=O)C(=O)N[C@@H](CCC(=O)O)C(=O)N[C@@H](Cc1ccccc1)C(=O)N[C@H](C(=O)NC(C)(C)C(=O)N[C@@H](Cc1c[nH]c2ccccc12)C(=O)N[C@@H](CC(C)C)C(=O)N[C@@H](CCC(=O)O)C(=O)N[C@@H](CC(=O)O)C(=O)N[C@@H](CCC(=O)O)C(=O)N1CCC[C@H]1C(=O)N[C@@H](CO)C(=O)N[C@@H](CO)C(=O)NCC(=O)N[C@@H](C)C(=O)N1CCC[C@H]1C(=O)N1CCC[C@H]1C(=O)N1CCC[C@H]1C(=O)N[C@@H](CO)C(=O)O)C(C)C) [Compound A33] | 10.9 pEC50 | < 9 pEC50
12 | YTHGTFTSDYSKWLDSKRAQEFVKWLEDEPSSGAPPPS-OH [Compound A42] | 9.4 pEC50 | < 9 pEC50
13 | YTHGTFTSDHSKWLDEARAQEFVKWLEDEPSSGAPPPS-OH [Compound A41] | 9.2 pEC50 | < 9 pEC50
14 | YSHGTFTSDYSKYLDSARAQEFVKWLEDEPSSGAPPPS-OH [Compound A37] | 13 pEC50 | < 9 pEC50
